Here are results for three substances from patent US20220289857A1.

Values joined by “and” are separate entries in the source; they are usually repeats but may differ in a detail not shown here. Equal values may be shown once.

Broadly, the Kd is the free concentration of one partner at which half of the binding sites on the other are occupied at equilibrium, for simple one-to-one binding. What is called koff is a measure of how fast the partners let go of each other. Read a high koff as fast dissociation. What is called kon is the second-order rate constant of association. Higher therefore signals fast association.

Assay [1] deals with human Fn14 (full length) on cells (human) (UniProt Q9NP84). The assay is described as follows: cell-based or functional assay.
The target of assay [2] is His-SUMO-huFn14 (soluble human Fn14 aa 28-75 with N-terminal 6xHis-SUMO tag) (human). The assay is described as follows: SPR Biacore T200; His-SUMO-huFn14 amine-coupled, Fab analyte; average of two runs.
The target is the same in assay [3]. The assay is described as follows: SPR Biacore T200; His-SUMO-huFn14 amine-coupled, Fab analyte; 1:1 fit. For orientation: SPR reads the build-up and loss of mass on a sensor chip optically.
The target in assay [4] is cynomolgus macaque Fn14-GST (cynomolgus macaque (Macaca fascicularis)). The assay is described as follows: SPR Biacore T200; cyno Fn14-GST captured by anti-GST, Fab analyte; average of two runs.
Assay [5] shares this target. The assay is described as follows: SPR Biacore T200; cyno Fn14-GST captured by anti-GST, Fab analyte; 1:1 fit.

Chain of cynomolgus macaque Fn14-GST (cynomolgus macaque (Macaca fascicularis)) (chain, as listed by the source): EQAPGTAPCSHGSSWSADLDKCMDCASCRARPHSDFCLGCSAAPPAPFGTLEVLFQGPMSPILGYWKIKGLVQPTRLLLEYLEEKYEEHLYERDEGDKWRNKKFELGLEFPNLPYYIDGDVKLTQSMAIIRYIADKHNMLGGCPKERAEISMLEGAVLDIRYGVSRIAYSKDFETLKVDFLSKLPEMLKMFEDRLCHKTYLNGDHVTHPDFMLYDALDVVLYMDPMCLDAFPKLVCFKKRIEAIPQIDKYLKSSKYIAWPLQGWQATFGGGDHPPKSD
Chain of His-SUMO-huFn14 (soluble human Fn14 aa 28-75 with N-terminal 6xHis-SUMO tag) (human) (chain, as listed by the source limits assumed): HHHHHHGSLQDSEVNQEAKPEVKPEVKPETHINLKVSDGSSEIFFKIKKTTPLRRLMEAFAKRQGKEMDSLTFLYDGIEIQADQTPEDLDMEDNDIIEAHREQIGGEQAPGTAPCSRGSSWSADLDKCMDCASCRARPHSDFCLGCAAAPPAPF
Chain of human Fn14 (full length) on cells (human) (Q9NP84 28-129): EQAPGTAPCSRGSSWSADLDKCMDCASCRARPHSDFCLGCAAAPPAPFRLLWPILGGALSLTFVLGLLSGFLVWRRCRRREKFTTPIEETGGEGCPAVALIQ

mIgG2b isotype control antibody yielded an ICAM-1 MFI on HRMC, 250 ng/mL rhTWEAK, mAb 0.1 µg/mL in assay [1] of 34700 MFI.
The same measure, in the same setting: to mIgG1 isotype control antibody belongs 33300 MFI.
On to ITEM-4 Fab (enzymatic digest), for which the dissociation constant (Kd) in assay [2] was 1.62 nM; in assay [3] it was 1.8 nM and 1.43 nM; in assay [4], 1.3 nM; in assay [5], 1.39 nM and 1.21 nM. Further, the off-rate constant (koff) was 0.00304 s⁻¹ and 0.00279 s⁻¹ in assay [3]; 0.00118 s⁻¹ and 0.00202 s⁻¹ in assay [5]. Further, the kon was 1.68e+06 M⁻¹ s⁻¹ and 1.94e+06 M⁻¹ s⁻¹ in assay [3]; 1.31e+06 M⁻¹ s⁻¹ and 1.68e+06 M⁻¹ s⁻¹ in assay [5].
